Data: WO2016155745A1 (dated 2016)

What was measured:
[1] = molecular target: T1, full-length human recombinant PAD2 (human, UniProt Q9Y2J8 1-665); assay: ELISA, culture supernatant 1:20 on PAD2-coated plates (Fig. 3)
T1 construct: also called rhPAD2; recombinant human PAD2

murine recombinant PAD2 = molecular target: T2, murine recombinant PAD2 (mouse, UniProt Q08642 1-673, limits assumed); assay: ELISA, culture supernatant 1:20 on mPAD2-coated plates (Fig. 3)
T2 construct: also called mPAD2; murine PAD2

[2] = molecular target: full-length human recombinant PAD4 (human, UniProt Q9UM07 1-663); assay: ELISA, purified mAb 1:100 on PAD-coated plates (Fig. 2)
[3] = molecular target: T3, full-length human recombinant PAD3 (human, UniProt Q9ULW8 1-664); assay: as above
T3 construct: mature; Full-length recombinant protein coated on plates at 100 ng/mL
T3 sequence (looked up): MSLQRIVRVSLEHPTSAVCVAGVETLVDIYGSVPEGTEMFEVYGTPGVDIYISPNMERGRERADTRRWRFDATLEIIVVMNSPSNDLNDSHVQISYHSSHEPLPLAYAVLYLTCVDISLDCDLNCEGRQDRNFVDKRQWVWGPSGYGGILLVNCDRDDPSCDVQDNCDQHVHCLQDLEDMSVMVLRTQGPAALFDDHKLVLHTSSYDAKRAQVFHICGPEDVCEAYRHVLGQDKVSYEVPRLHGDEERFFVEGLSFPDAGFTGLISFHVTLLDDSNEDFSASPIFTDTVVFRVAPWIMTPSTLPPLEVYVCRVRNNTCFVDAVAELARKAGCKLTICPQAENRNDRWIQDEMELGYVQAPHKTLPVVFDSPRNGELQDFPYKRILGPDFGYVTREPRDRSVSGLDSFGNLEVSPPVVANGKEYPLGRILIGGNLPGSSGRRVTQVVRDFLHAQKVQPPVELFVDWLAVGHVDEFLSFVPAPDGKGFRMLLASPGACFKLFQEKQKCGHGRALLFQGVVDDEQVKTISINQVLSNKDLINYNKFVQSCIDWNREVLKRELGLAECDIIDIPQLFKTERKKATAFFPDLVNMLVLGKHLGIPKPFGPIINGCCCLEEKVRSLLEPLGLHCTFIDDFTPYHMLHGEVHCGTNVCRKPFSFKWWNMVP

[4] = molecular target: T1, full-length human recombinant PAD2; assay: as above

Measured: binding result

full-length human recombinant PAD4, sequence (Q9UM07 whole entry): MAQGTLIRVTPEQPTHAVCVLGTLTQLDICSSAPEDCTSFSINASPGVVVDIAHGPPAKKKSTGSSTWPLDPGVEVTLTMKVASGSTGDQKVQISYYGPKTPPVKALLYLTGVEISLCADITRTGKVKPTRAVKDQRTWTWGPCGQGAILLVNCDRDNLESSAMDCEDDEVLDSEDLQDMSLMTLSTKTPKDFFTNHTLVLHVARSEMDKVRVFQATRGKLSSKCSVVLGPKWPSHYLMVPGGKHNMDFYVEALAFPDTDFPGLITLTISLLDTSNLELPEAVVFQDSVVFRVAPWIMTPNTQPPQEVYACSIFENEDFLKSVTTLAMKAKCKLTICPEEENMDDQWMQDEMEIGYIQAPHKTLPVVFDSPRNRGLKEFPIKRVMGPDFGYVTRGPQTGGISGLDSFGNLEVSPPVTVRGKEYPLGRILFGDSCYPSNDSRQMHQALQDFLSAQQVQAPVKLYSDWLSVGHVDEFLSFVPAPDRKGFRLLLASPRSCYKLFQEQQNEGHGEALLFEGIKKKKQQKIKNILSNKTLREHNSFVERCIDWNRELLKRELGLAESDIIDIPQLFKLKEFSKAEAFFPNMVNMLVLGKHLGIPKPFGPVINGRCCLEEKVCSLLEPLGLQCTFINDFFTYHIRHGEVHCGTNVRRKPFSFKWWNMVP
T2 sequence (Q08642 whole entry): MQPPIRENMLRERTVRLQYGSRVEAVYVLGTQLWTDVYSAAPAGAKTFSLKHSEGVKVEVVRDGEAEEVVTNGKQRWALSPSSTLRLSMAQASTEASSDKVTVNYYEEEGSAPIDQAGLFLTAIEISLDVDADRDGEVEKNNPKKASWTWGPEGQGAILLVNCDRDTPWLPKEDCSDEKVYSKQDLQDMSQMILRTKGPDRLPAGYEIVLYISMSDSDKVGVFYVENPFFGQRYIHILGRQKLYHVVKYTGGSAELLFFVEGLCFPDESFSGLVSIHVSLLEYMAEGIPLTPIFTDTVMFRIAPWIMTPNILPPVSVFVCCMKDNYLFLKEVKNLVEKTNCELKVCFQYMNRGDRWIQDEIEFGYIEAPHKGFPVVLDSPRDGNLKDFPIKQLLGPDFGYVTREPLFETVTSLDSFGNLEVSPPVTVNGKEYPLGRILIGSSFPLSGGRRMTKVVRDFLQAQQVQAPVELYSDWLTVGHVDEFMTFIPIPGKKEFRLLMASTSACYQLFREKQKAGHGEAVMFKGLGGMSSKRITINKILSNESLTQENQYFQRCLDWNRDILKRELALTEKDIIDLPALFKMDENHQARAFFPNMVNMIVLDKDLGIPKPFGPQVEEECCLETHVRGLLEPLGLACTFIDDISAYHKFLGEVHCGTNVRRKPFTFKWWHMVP
T1 sequence (Q9Y2J8 whole entry): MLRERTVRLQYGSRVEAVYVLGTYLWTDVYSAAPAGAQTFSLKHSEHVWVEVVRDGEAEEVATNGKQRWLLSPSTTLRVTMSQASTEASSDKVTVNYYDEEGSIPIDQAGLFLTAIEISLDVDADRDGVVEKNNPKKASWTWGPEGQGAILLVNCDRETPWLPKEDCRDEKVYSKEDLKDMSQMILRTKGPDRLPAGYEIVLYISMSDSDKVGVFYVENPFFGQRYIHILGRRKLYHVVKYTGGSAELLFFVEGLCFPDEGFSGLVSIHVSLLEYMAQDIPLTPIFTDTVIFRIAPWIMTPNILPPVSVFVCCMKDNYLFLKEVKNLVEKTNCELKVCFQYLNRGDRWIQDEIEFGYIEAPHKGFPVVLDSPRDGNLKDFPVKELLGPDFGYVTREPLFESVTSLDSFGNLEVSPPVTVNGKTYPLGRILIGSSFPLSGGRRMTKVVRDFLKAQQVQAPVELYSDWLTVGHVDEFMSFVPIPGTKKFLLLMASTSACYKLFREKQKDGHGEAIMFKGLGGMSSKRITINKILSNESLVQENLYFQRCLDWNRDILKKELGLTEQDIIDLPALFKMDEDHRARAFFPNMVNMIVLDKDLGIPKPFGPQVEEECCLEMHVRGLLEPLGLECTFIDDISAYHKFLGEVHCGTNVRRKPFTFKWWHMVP

B1: mSol3 (antibody, V domains shown)
VH: EVQLEESGADLVKPGASVKLSCKASGYTFTSYWMHWVKQRPGQGLEWIGEIIPSNGHTNYNEKFKSKATLTVDKSSSTAYMQLSSLTPEDSAVYYCARGRDFFYGFGDYWGQGTTLTVSS
VL: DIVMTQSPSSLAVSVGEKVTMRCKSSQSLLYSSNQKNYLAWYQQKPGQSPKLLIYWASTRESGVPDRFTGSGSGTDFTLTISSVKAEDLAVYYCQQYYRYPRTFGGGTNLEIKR
notes: also called cross-reactive anti-PAD antibody mSol3
not listed: [4]
binds: all other assays above

B2: mSol4 (antibody, V domains shown)
VH: LEESGGDLVKLGGSLKLSCAASGFTFSSYYMSWVRQTPEKRLELVAAIHSDGGNTYYPDTVKGRFTISRDNAKNTLYLQMSSLKSEDTALYYCARHSYYGSSYDYWGQGTTLTVSS
VL: DIVLTQSPLSLPVSLGDQASISCESSQSLVHSNGITYLHWYLQKPGQSPKLLIYKVSHRFSGVPDRFSGSGSGTDFTLKISRVEAVDLGVYFCSQSTHVPFTFGSGTKLEIKR
notes: also called cross-reactive anti-PAD antibody mSol4
not listed: [1]
binds: all other assays above
